The values below come from patent US20180073000A1.

In experiment [1] the target is T1, GALNS-231 (C4-N6 + E8-N14 + I10-N14) (Homo sapiens).
T1 sequence: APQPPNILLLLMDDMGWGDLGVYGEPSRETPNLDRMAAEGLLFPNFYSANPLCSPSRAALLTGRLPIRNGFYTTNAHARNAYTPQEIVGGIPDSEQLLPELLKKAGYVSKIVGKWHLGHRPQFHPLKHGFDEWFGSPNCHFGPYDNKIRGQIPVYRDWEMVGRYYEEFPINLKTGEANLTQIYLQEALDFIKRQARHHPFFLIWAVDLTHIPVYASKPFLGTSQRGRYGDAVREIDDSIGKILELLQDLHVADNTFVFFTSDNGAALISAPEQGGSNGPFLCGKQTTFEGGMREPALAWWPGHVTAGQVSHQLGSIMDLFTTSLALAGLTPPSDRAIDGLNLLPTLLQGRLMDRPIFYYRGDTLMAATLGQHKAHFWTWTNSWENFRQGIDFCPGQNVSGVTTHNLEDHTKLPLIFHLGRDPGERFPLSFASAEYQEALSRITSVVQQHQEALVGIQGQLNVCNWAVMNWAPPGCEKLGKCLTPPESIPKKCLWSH

The target in experiment [2] is T2, GALNS-242 (C4-N7 + E8-N11) (Homo sapiens).
T2 sequence: T1 sequence with I148L, A205L, L208A, I211L, G455P, I456A, G458P

The target in experiment [3] is T3, I10-N14 modified GALNS (Homo sapiens).
T3 sequence: T1 sequence with I148A, G150P, Q151N, I203Y, L208A, I211A

The target in experiment [4] is T4, E8-N13 modified GALNS (Homo sapiens).
T4 sequence: T1 sequence with I148A, G150P, Q151N, I211L, G455P, I456A, G458P

Experiment [5] addresses T5, GALNS-201 (C4-N6 + I10-N14) (Homo sapiens).
T5 sequence: T1 sequence with I203Y, L208A, I211A

Experiment [6] concerns the target T6, GALNS-315 (E8-N14 + I10-N14) (Homo sapiens).
T6 sequence: T1 sequence with I148A, G150P, Q151N

Experiment [7] deals with T7, C4-N6 modified GALNS (Homo sapiens).
T7 sequence: T1 sequence with I203Y, L208A, I211A, G455P, I456A, G458P

Experiment [8] concerns the target T8, Wild type N-acetylgalactosamine-6-sulfate sulfatase (GALNS) (Homo sapiens).
T8 sequence: T1 sequence with I148A, G150P, Q151N, I203Y, L208A, I211A, G455P, I456A, G458P

Changes are numbered by the printed parent chain.

B1: Sulfatase-modifying factor 1 (SUMF1) (enzyme)
chain: SQEAGTGAGAGSLAGSCGCGTPQRPGAHGSSAAAHRYSREANAPGPVPGERQLAHSKMVPIPAGVFTMGTDDPQIKQDGEAPARRVTIDAFYMDAYEVSNTEFEKFVNSTGYLTEAEKFGDSFVFEGMLSEQVKTNIQQAVAAAPWWLPVKGANWRHPEGPDSTILHRPDHPVLHVSWNDAVAYCTWAGKRLPTEAEWEYSCRGGLHNRLFPWGNKLQPKGQHYANIWQGEFPVTNTGEDGFQGTAPVDAFPPNGYGLYNIVGNAWEWTSDWWTVHHSVEETLNPKGPPSGKDRVKKGGSYMCHRSYCYRYRCAARSQNTPDSSASNLGFRCAADRLPTMD
With B1, the GALNS enzyme activity in the pellet of COS-7 cells co-transfected with SUMF1, percentage of GALNS without SUMF1 (percent of GALNS (without SUMF1)) in experiment [1] is 628; in experiment [2] it was 434; in experiment [3], 568; in experiment [4] it was 567; in experiment [5], 545; in experiment [6], 563. Moreover, the GALNS enzyme activity in the pellet of COS-7 cells co-transfected with SUMF1, percentage of GALNS without SUMF1 (percent of GALNS (without SUMF1)) in experiment [7] came to 443; in experiment [8], 1930.
